Assay results taken from the DeepSol protein solubility set.

Test: soluble on expression in E. coli; label from the status in PepcDB or PDB records

Sequence	soluble on expression in E. coli
MGSDKIHHHHHHVEQTMFTNEVILSWLQYFSKNAPINLAKLKMLDITGKNKNLIPTVMSNRAVLVFTDAGHPDIFYDMWNAELGDCDIWYNEGSEPSGEIKHDKVSDMINRGINASAAMLILNPNAATNYHIGMENSRFSCGSVQYVCREVRAVIMNKLNLGDQDNICIISGESIAVEAAMIAAEGSVIAVEYDRRDRNTMQENVKKFDLNNVTIVESLENGIPDKLPVPDIAFIVGSPRIGSEIKALLSINPVMDFVIYTLDFEVLMSLPALFRENGLERTEAIHVAVSRVNSKKMVEPFPAPWLISGRSIKG	not soluble
MGSDKIHHHHHHEIMTRENNDQETLKLIQENKLQAEGNIFANVSALKDQNKRFQDECHSEKKQFGIKVEETTAQNNDEVLKESAQTNHIKLGNQQNKLTHESRIMALKEGNTVTKIHVGQAQEKDRKETNFIAAVNRMIQAGRDLPETVDSLEGHTLKLRYGSDASALESDIGLCEIIVSSINRKISKLQDSCIDLSNYAIADHRMVQEMQKNALGINESVRRIQSHLTQFRVSLSDNPITNSMELYKKVQTESHSLSTKINSMPVVTETNHAVAYLRKQRETLALNLPTVA	not soluble
MGSDKIHHHHHHMFDDKMSGNAMNAEIELKLFFLPIYQESLINKLDSLDNAVPQGKRRLANGYFDTPDLQLRQWDMGLRVRGYDAHREQTIKTAGQVVGGIHSRPEYNVTIQADSPDLSLFPASIWPADADLAATQAQLTCIFHTDFYRRSWHVQIDNSVVEVALDIGEITANGQQEALCELEFELLSGDTEALLKLAMQVASVVPVRLGKASKAQRGYRLAGKAKPLDLTALEFLPLAEPRDSSTQDLTANCQILLETALERWQLLESMIAEESKPEACVALWWRMRACIRLLRMTLSQFELLNVTLSSRFMSIEKQLDFIEQAQALTALLGSQRGLFAKLGQHAQVKARLMAQLSEIHLTERLLSLWQQTEYGQLQLAIVEILLKVSAGEVDISNQPSLRQHADRAQQASWMAIVEVMPLNTVMTSANYLQVAAVLDESILVGHAYGSLYEAKSRDAFRAPWQDLVLGIKTLACYRAVQDASRELDIDLNEWLEDKQQSLLFAMESTRRNAMQQQAYW	not soluble
MAHHHHHHMDHQDLKPVIWHKTEKKTKPKDIHEARKLGIDVEVEKKYFGGKNKSSKGNLIIENKAKIEQETENFKIDRVTPAFSRALQQARISKKLTQAQLARLVNESESVIKEYENGKAIPNNVIIQKLNKVLGVNLPSPKKK	soluble
MLILGIDTSTKICTCSIFDSENGVIAETSLSVKKNHSNIVMPIIDNLFKISDLTINDIDKIAVAIGPGSFTGVRIALGIAKGLAMALNKPLIAINELDILEAIASGNENEIIPLIDARKERVYYKYQNKYVDDYLINLTSNFDKNKKYIFVGDGAINYKNILKDNLGENAIILPMYNSFPRASILCELALNKEEANIYTLEPEYISKSRAEKHFLEHHHHHH	soluble
MGHHHHHHGGHMSLTKKLHIKTWGCQMNEYDSSKMADLLDATHGYQLTDVAEEADVLLLNTCSIREKAQEKVFHQLGRWKLLKEKNPDLIIGVGGCVASQEGEHIRQRAHYVDIIFGPQTLHRLPEMINSVRGDRSPVVDISFPEIEKFDRLPEPRAEGPTAFVSIMEGCNKYCTYCVVPYTRGEEVSRPSDDILFEIAQLAAQGVREVNLLGQNVNAWRGENYDGTTGSFADLLRLVAAIDGIDRIRFTTSHPIEFTDDIIEVYRDTPELVSFLHLPVQSGSDRILNLMGRTHTALEYKAIIRKLRAARPDIQISSDFIVGFPGETTEDFEKTMKLIADVNFDMSYSFIFSARPGTPAADMVDDVPEEEKKQRLYILQERINQQAMAWSRRMLGTTQRILVEGTSRKSIMELSGRTENNRVVNFEGTPDMIGKFVDVEITDVYPNSLRGKVVRTEDEMGLRVAETPESVIARTRKENDLGVGYYQPEGGS	soluble
MAHHHHHHMGANGSKTASSSSAVPAATTTTGDNKGTVNRWYGAVSDASDADLGLAPDVSLSSDISTPEENAAKRKAYAHLQSPYARHQLAASMKGRGSSGNNGAEASATAHVNLIEQIYNEDFETIDHIQALRLPPMVSQQLKNTVRSEAERRCAEVEKTMARCLQDKMWTSWKCQKERDTYYHCVEEIEQRNLRPDPTNPHWVDMLTSFRWKYNLGVFHGEIIGRNNIMKQIWREHYPDRELPHPWVKDA	not soluble
MTNPMQATRKIISITDQNVVHREDQVAREYPLTIYVNDREFATMVCTQADLEEMVIGFLGSEGLIRFYKQDVASLSIDESRGFAYVSLTKELPTEWQFYSKRMIGSCCGKSRQSFYFHNDAKTAKTSMSRTTMTPEQCFRLMEALQEQSVIFQQTGGVHNAALATPEQMLISRTDIGRHNALDKLYGYCLMNGVPVRDKVLLFSGRISSEVLLKAAKIGVGIMLSKSAPTELALTMAEELNITTAGFIRDGRMNIYTVPERILTPKKEVQLEHHHHHH	soluble
MGSDKIHHHHHHCQNAAATDTNQSVSAKLQQQALSSSLAYDIVESLTVEVGPRLAGSDKDLVAVEWAEKKLGSLGFDKVYKEAVQVPVWQRGEAKANIVSPYAQPLVITALGGSVGTPEEGISAPIVRFETLDELKQADPSLVAGKIVFIDHITPRFKTGKGYGMTVGGRSRGAIAAAEKGALAIVIRSIGTDHDRMAHTGMMRYQEGVDKIPAAAMSNPDADLVTLMLKRDPNVVLHLEMSPKNLGYATSYNVIAEVTGSSKPDEIVLIGAHLDSWDEGTGAIDDGAGVAIVTAAGHYISQLRVKPARTVRVVLYAAEELGLIGGKSYAKDHQAELAQHYIAAESD	not soluble
MTDSTPQGSTPGMSPEAILNGTGKPWEEWLKLLDDVKATSWTHTHIAKHIVDNFDVSGWWAQGIAIGYEYERGMRKPGMTSDGFAANASKTLNLPVEKVWKLFGDDDLRAQWLDPALIEKTSASEPRTFNAKWLADDSRVSVNFTSKGDNKSSFGIQHRRLPDQDSIPVMKAFWKERIAALVEVSKQFSLLEHHHHHH	soluble
RKEIQPIRELAKAATLMSSRLDVPEVSERGSNELKAAVRAFNKMNRRIDSHIKDREMLFSAISHDLKTPIACLKLRAEMLDDDADRERFIRLSNDLDLMVKGALQCIKETDIHEEIEPINFTQLIQHISSNIADAPDTIRIHGEIRTHFAGK	not soluble
MGSDKIHHHHHHMKVQRIQAIENLIHEKGSASLDDLCKQFNVSKNTIRRDIAKLLQKNTIKKVYGGVVSIYNNPEEIRPFENRDTENHAEKQLIGKAAADFIEENDLIFIDSGTTTSCLAAALPTDKEITIITNSLDVINFASEMDNVKLIVIGSTFKTSTKSFVGVENWGFFEKYNITKAFMAATALSTTHGVMNSDILEYEIKRHMMEKAREKFLLVDHTKVDKSALLTYGELAEFDWLVTSKEMAGGCLGYCADVGVLVRLV	not soluble
MGSDKIHHHHHHMRAPQAQSKLSEVLEFLQQYEGTINPNKLIFGRWIKDAQALRLVDPSEGYMMEAWVYRAQGKLDKALEYMKNAYRLDSSSSSVNVNYASLLLSSGDFNESEKLCIKRIRLDRTNTDIFKILITNTLHTFNQDALFEAIELFIPTNPEAEKVIGQAKKRIFDFDHMQSTLESANLSIEVYKRFSSITQKVRNTRYIGESRTVINCEVNELGTFLLIDEALVNASIEDCLSMYDDLVEEIINDDHYFEEYKKIIFNFIPTTSTAINSAYQLEI	not soluble
MGHHHHHHSHMFLVLKKKHICHRNLVNILQLNMYVCCLDKCNHCKHLYDLGFCFYFEMGAFLFTSSLKTKNCFCKEMRFFLNNKKCLADSLLNKNLPNFLIDYFKPFVTWYSFASQFRFRVITFPLFLRKMKKVILLSEGERHSFIFFFFFFFFL	not soluble
MGSDKIHHHHHHMKDNYDAPESMLTGRVMYNGEALQLRGNEAVQLQLYQHGYAKHDPINVYVNQDGMYSANLFDGEYQMITKSGNGPWTSEGRDTINVTVAGNTVQDVEVTPYYLVRDAQMTLEGNKVNASFKVEKVAGGGIDRVFFMLSTTQFVNDAEHNVDRYDETDNLDAYDETGKLYTFATRDYTDNSMFQTALKRGTLFGRICIWPKGSDQGIYSKVIRLK	not soluble
MAHHHHHHMSGVNAWGRMHTPAKQSQFTLDMFEEWKAKQNEDIAQRGADRDPAVEEEHNRYMLRQNLNAYVCYKELDRYTTCLEDKRLIRRRDDEDGARGGGTGVSLASSFEINTRNKVNEKLCRATHNTYVSCMSSQKNQEVVLQSASLEPHCTERRAKLFRCLRENQVSEAQTNTPQCTDTYRSLLRCGLNHLWNHYWREITKFSDTDEFHLYELSRDDNKKQAYLRALTTSEAQRQSHLREARDTMLGYYLDPKAAQKGDS	not soluble
MWGKKDAGTELTNYQTLATNTIGMMKGVDGYAFTSGAKMTDTLIQAGAAKGMTVSGDPASGSATLWNSWGGQIVVAPDTAGGTGFNNGFTITTNKVPQSACVSISTGMSRSGGTSGIKINGNNHTDAKVTAEIASSECTADNGRTGTNTLVFNYNG	soluble
MSLKIILPVKPISQLFPIPFVMGCEGVSAAMLLQFNNYDIKATQIMSHWPKHPTNPYKGYVGHPLLVKFGHHQTIFPDAFAPFLKQYDSRIVDGTGTSLNQLEKFIDKGQPVIIYHTSLGSKPLRRVFHFDNQPTKLVSNIHVTLLIGYDDDYYYYIDPLWSRLSKFVIFPSIIPNSKQIIKIKKHTLENSYNAPGKKCIYIDNEGHHHHHH	not soluble
MAKIYNAPKPKYSGWEWFKFIAIRTVFPPVLLWDLIKIGANKLLGEWVSGLVLPAQNENFDDLAISDDTVSNYNEDDLICEKHDVITHDGAHLDTFEVRHRSQESIDPKYQKYIINLVGNGMCYEHIIDDIKEDSKALKANVIGFNLRGVGQSTGKAKSSEDLVADGIAQVQRLLDQGVSPQNITLKGHSLGAGVASLVAQHFHQLGQPINLFNSRSFSTITNFLVGHMRLERDEIGRAIGHKDSTVGTILGWLAKPFIKFGVALAKWEINAGSAFKSVPEAYKDYIVVRSRKEIRGERIDDAVIPHYASIHKELASERHKKKAEIDEEIANLDDIIRKADPLAKPGLANARDALVQAREKIKSDRKMETDVQYANGHNSDWNALHNRSGKSAQTFFREFVQRTEADHAVKSIPEIN	not soluble
MIIATAGHVDHGKTTLLQAITGVNADRLPEEKKRGMTIDLGYAYWPQPDGRVPGFIDVPGHEKFLSNMLAGVGGIDHALLVVACDDGVMAQTREHLAILQLTGNPMLTVALTKADRVDEARVDEVERQVKEVLREYGFAEAKLFITAATEGRGMDALREHLLQLPEREHASQHSFRLAIDRAFTVKGAGLVVTGTALSGEVKVGDSLWLTGVNKPMRVRALHAQNQPTETANAGQRIALNIAGDAEKEQINRGDWLLADVPPEPFTRVIVELQTHTPLTQWQPLHIHHAASHVTGRVSLLEDNLAELVFDTPLWLADNDRLVLRDISARNTLAGARVVMLNPPRRGKRKPEYLQWLASLARAQSDADALSVHLERGAVNLADFAWARQLNGEGMRELLQQPGYIQAGYSLLNAPVAARWQRKILDTLATYHEQHRDEPGPGRERLRRMALPMEDEALVLLLIEKMRESGDIHSHHGWLHLPDHKAGFSEEQQAIWQKAEPLFGDEPWWVRDLAKETGTDEQAMRLTLRQAAQQGIITAIVKDRYYRNDRIVEFANMIRDLDQECGSTCAADFRDRLGVGRKLAIQILEYFDRIGFTRRRGNDHLLRDALLFPEK	soluble
